Source: article PMC2693429

What was measured:
[1] = biological target: Recombinant Very Low Density Lipoprotein Receptor (VLDLR) ligand binding region; assay: SPR; VLDLR immobilised on a CM5 BIAcore chip (~2,000 response units, amine coupling); analytes in 10 mM Hepes pH 7.4, 150 mM NaCl, 1 mM CaCl2, 0.005% Tween-20 at 20 μL/min; regeneration 100 mM H3PO4; blank cell as reference; 1:1 binding model
[2] = biological target: 6 × His-tagged PAI-2 lacking the intrahelical loop between C and D alpha-helices (PAI-2 ΔCD-loop), from pQE9 (human) (UniProt P05120); assay: native MS; positive ion ESI-MS (Q-TOF); 10 μM protein in 10 mM ammonium acetate pH 6.8 with 0.1% formic acid; monomeric and dimeric species seen

Kd [1]	koff [1]	kon [1]	stoichiometry N [2]	Substance
4.81 nM	0.00144 s⁻¹	375000 M⁻¹ s⁻¹	–	uPA:PAI-2 wild-type complex (from UniProt P05120 1-415)
4.34 nM	0.00136 s⁻¹	416000 M⁻¹ s⁻¹	–	uPA:PAI-2 ΔCD-loop complex (from UniProt P05120 1-415)
–	–	–	2	6 × His-tagged PAI-2 lacking the intrahelical loop between C and D alpha-helices (PAI-2 ΔCD-loop), from pQE9 (from UniProt P05120 1-415) (natural protein)
